PMC3934934, “The Self-Interaction of a Nodavirus Replicase Is Enhanced by Mitochondrial Membrane Lipids” (PLoS ONE, 2014)

Tests used:
Test in all cases: pull-down; MBP fusion protein (1 µM) held on amylose resin, His-tagged protein (1 µM) in vitro translated in rabbit reticulocyte lysate; room temperature, 4 hrs; no lipids; Western blot with anti-His; signals given as % of FL to FL protein A self-interaction
Conditions in all cases: one partner purified
[1] = target: T1, MBP-protA fragment aa 255–480 (Wuhan nodavirus (WhNV), UniProt Q3KSM3 255-480)
T1 construct: source: E. coli strain TB1, purified (amylose resin); not shown: MBP, N-terminal, kept
T1 sequence: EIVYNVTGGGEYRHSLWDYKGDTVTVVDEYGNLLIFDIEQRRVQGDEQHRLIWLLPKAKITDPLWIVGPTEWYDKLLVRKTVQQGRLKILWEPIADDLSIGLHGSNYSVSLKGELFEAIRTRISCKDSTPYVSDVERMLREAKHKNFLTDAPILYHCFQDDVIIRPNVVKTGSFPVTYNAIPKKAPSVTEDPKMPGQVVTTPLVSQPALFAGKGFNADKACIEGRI

[2] = target: T2, MBP-protA fragment aa 481–659 (Wuhan nodavirus (WhNV), UniProt Q3KSM3 481-659)
T2 construct: source: E. coli strain TB1, purified (amylose resin); not shown: MBP, N-terminal, kept
T2 sequence: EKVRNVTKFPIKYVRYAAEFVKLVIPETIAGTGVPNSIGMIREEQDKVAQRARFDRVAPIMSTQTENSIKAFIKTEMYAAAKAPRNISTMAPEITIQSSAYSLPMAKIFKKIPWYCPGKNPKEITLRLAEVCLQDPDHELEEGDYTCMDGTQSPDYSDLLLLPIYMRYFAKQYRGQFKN

[3] = target: T3, MBP-protA fragment aa 1–839 (Wuhan nodavirus (WhNV), UniProt Q3KSM3 1-839)
T3 construct: also called 1–839 MBP/protA; source: E. coli strain TB1, purified (amylose resin); not shown: MBP, N-terminal, kept
T3 sequence: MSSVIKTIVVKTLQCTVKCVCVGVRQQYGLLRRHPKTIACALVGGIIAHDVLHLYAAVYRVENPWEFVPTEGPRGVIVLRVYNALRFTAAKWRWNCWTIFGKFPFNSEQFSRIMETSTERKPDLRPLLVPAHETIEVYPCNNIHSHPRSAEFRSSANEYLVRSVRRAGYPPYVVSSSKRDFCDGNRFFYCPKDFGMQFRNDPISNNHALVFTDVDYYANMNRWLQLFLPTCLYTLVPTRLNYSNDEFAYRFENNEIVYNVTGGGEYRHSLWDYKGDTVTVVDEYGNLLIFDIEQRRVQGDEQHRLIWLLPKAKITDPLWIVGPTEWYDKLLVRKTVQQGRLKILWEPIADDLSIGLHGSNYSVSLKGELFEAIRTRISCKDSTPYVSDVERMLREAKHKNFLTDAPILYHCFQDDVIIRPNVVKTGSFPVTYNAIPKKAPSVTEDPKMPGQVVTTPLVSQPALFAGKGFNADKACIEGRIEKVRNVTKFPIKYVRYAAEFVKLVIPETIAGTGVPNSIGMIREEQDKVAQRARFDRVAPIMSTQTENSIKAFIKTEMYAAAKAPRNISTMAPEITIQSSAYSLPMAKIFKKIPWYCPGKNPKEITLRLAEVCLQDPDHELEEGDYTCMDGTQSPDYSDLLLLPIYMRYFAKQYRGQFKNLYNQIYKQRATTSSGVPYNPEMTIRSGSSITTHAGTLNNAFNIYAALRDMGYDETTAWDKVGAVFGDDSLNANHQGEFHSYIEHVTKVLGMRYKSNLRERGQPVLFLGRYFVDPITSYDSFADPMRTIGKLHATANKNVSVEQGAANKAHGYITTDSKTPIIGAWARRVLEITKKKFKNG

[4] = target: T4, MBP-protA fragment aa 1–659 (Wuhan nodavirus (WhNV), UniProt Q3KSM3 1-659)
T4 construct: also called 1–659 MBP/protA; source: E. coli strain TB1, purified (amylose resin); not shown: MBP, N-terminal, kept
T4 sequence: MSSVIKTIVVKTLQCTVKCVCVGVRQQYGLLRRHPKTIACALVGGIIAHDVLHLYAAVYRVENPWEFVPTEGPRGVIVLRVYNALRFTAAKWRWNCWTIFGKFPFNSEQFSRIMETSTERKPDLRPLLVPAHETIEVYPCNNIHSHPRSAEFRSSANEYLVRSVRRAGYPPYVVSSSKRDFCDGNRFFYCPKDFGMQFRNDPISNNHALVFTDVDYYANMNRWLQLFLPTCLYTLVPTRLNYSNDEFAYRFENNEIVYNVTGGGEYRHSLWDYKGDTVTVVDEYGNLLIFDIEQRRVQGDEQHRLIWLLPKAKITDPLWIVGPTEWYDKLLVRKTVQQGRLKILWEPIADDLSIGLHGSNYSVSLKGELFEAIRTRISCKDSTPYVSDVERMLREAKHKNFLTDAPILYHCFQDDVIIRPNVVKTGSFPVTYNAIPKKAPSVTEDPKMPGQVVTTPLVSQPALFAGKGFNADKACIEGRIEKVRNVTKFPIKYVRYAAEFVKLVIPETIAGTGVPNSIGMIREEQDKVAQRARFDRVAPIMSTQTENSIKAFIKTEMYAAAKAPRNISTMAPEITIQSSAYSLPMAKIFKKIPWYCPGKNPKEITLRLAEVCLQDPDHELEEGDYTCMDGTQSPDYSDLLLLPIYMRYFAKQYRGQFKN

B1: His-tagged WhNV protein A, in vitro translated (natural protein)
chain: MSSVIKTIVVKTLQCTVKCVCVGVRQQYGLLRRHPKTIACALVGGIIAHDVLHLYAAVYRVENPWEFVPTEGPRGVIVLRVYNALRFTAAKWRWNCWTIFGKFPFNSEQFSRIMETSTERKPDLRPLLVPAHETIEVYPCNNIHSHPRSAEFRSSANEYLVRSVRRAGYPPYVVSSSKRDFCDGNRFFYCPKDFGMQFRNDPISNNHALVFTDVDYYANMNRWLQLFLPTCLYTLVPTRLNYSNDEFAYRFENNEIVYNVTGGGEYRHSLWDYKGDTVTVVDEYGNLLIFDIEQRRVQGDEQHRLIWLLPKAKITDPLWIVGPTEWYDKLLVRKTVQQGRLKILWEPIADDLSIGLHGSNYSVSLKGELFEAIRTRISCKDSTPYVSDVERMLREAKHKNFLTDAPILYHCFQDDVIIRPNVVKTGSFPVTYNAIPKKAPSVTEDPKMPGQVVTTPLVSQPALFAGKGFNADKACIEGRIEKVRNVTKFPIKYVRYAAEFVKLVIPETIAGTGVPNSIGMIREEQDKVAQRARFDRVAPIMSTQTENSIKAFIKTEMYAAAKAPRNISTMAPEITIQSSAYSLPMAKIFKKIPWYCPGKNPKEITLRLAEVCLQDPDHELEEGDYTCMDGTQSPDYSDLLLLPIYMRYFAKQYRGQFKNLYNQIYKQRATTSSGVPYNPEMTIRSGSSITTHAGTLNNAFNIYAALRDMGYDETTAWDKVGAVFGDDSLNANHQGEFHSYIEHVTKVLGMRYKSNLRERGQPVLFLGRYFVDPITSYDSFADPMRTIGKLHATANKNVSVEQGAANKAHGYITTDSKTPIIGAWARRVLEITKKKFKNGTGEEQYRCSNAWPQKDEAAIRAAMAAVLEVDEAQLIAQNEAVLKVNSLDQFPVVFDTYYDHKQLAEVDGQLVGTDLHIKEEDERQPETSIDSVPSTGPPPSNGDPNAGGKPTDGPSKGKRKVKGRRPRTAGDPATLRLTDAGSSRRVKPPRKLRPEAKRGGRPIETLVFKNSSLS
notes: also called His-protA; FL His-protA; source: in vitro translated in nuclease-treated rabbit reticulocyte lysates
self-interaction efficiency, % of FL to FL protein A self-interaction [1]: 52% | self-interaction efficiency, % of FL to FL protein A self-interaction [2]: 17% | self-interaction efficiency, % of FL to FL protein A self-interaction [3]: 108% | self-interaction efficiency, % of FL to FL protein A self-interaction [4]: 96%
